Usually Kd stands for the equilibrium constant for the complex coming apart. Read a high Kd as lower affinity.

In one series the test system is tau K18 (Homo sapiens). Nature of the series: ITC. Particulars: n = 0.49 tRNA per tau; 20 mM ammonium acetate pH 7; EMSA: 100 mM sodium acetate pH 7.0, 0.5 mM EDTA, 0.5 mM MgCl2, 0.01% IGEPAL CA-630, RNase inhibitor, 37 C 10 min, TBE 8% gel; ITC: 20 mM ammonium acetate pH 7 ….
Series [1] relates to tau 4R2N (Homo sapiens), P10636-8. Nature of the series: ITC. Particulars: n = 0.52 tRNA per tau; 20 mM ammonium acetate pH 7; EMSA: 100 mM sodium acetate pH 7.0, 0.5 mM EDTA, 0.5 mM MgCl2, 0.01% IGEPAL CA-630, RNase inhibitor, 37 C 10 min, TBE 8% gel; ITC: 20 mM ammonium acetate pH 7 …. For orientation: Mobility shift assays separate free from complexed probe on a gel.
Chain of tau 4R2N (Homo sapiens), P10636-8 (P10636 other isoform, or with tags, fused parts or gaps): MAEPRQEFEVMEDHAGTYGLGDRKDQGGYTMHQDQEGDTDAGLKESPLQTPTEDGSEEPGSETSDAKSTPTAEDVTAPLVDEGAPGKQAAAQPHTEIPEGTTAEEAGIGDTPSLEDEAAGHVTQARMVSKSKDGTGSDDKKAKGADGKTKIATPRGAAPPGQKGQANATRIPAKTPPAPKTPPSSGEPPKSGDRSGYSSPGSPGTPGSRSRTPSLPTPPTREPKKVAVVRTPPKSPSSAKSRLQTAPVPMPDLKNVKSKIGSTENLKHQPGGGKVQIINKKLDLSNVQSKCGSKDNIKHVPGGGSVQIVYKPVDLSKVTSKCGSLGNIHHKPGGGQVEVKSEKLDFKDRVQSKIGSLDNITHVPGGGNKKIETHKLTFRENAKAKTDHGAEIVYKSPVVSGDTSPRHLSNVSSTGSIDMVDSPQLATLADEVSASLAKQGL
Series [2] has the same test system. Nature of the series: EMSA. The conditions noted are these: Hill coefficient 2.8; 26 nM tRNA, 0.5 mM MgCl2, 0.5 mM EDTA, 37 C; native tRNA modifications likely, not described; EMSA: 100 mM sodium acetate pH 7.0, 0.5 mM EDTA, 0.5 mM MgCl2, 0.01% IGEPAL CA-630, RNase inhibitor, 37 C 10 min, TBE 8% gel; ITC: 20 mM ammonium acetate pH 7 ….

In the case of yeast tRNA (bulk), the Kd in the series on tau K18 (Homo sapiens) amounted to 0.372 µM; in series [1], 0.735 µM.

tRNALys, unacetylated gave a Kd in series [2] of 0.46 µM.

Values taken from publication PMC5500003.
